From patent CN116813757A (INST MICROBIOLOGY CAS, dated 2023)

Biological target: SARS-CoV-2原始毒株的RBD蛋白 (SARS-CoV-2 RBD-his蛋白) (SARS-CoV-2 original strain, UniProt P0DTC2 319-541)

B1: 单链纳米抗体R14 (R14-his蛋白) (VHH)
VHH: QVQLQESGGGLVQPGGSLRLSCAVSGFTLDYYAIGWFRQAPGKEREGVSCISSSDGSTSYADSVKGRFTISRDNAKNTVYLQMNSLKPEDTALYYCAATPATYYSGRYYYQCPAGGMDYWGQGTQVTVSS
Kd: < 0.1 nM
